± gives the uncertainty stated by the source.
B1: Protein C-ets-1, residues 55 to 135; numbered along this chain, P14921 (parent)
chain: GFTKEQQRLGIPKDPRQWTETHVRDWVMWAVNEFSLKGVDFQKFCMNGAALCALGKDCFLELAPDFVGDILWEHLEILQKE
B2: Transcription factor SOX-11, residues 50 to 117; numbered along this chain, P35716 (parent)
chain: KRPMNAFMVWSKIERRKIMEQSPDMHNAEISKRLGKRWKMLKDSEKIPFIREAERLRLKHMADYPDYK

Variants of: B1
Test: abundance fitness (aPCA) (normalised: wild type 0, dead -1); higher = more abundant; growth selection in yeast, the domain comes from the species named
Conditions: Homo sapiens

Row | Variant | abundance fitness
1 | GFTKEQQRLGIPKDPRQWTETHVRDWVMWAVNEFSLKGVDFQKFCMNGAALCALGKDCFLELAPDFVGDILWEHLEQLQKE [I77Q] | -0.029 ± 0.073
2 | GFTKEQQRLGIPKDPRQWTETHVRDWVMWAVNEFSLKGVDFQKFCMNGAALCALGKDCFLELAPDFVGDILWEHLEALQKE [I77A] | 0.008 ± 0.042
3 | GFTKEQQRLGIPKDPRQWTETHVRDWVMWAVNEFSLKGVDFQKFCMNGAALCALGKDCFLELAPDFVGDILWEHLESLQKE [I77S] | 0.065 ± 0.049
4 | GFTKEQQRLGIPKDPRQWTETHVRDWVMWAVNEFSLKGVDFQKFCMNGAALCALGKDCFLELAPDFVGDILWEHLEILQNE [K80N] | 0.029 ± 0.19
5 | GFTKEQQRLGIPKDPRQWTETHVRDWVMWAVNEFSLKGVDFQKFCMNGAALCALGKDCFLELAPDFVGDILWEHYEILQKE [L75Y] | -0.62 ± 0.14
6 | GFTKEQQRLGIPKDPRQWTETHVRDWVMWAVNEFSLKGVDFQKFCMNGAALCALGKDCFLELAPDFVGDILWEHSEILQKE [L75S] | -0.796 ± 0.059
7 | GFTKEQQRLGIPKDPRQWTETHVRDWVMWAVNEFSLKGVDFQKFCMNGAALCALGKDCFLELAPDFVGDILWEHTEILQKE [L75T] | -1.02 ± 0.17
8 | GFTKEQQRLGIPKDPRQWTETHVRDWVMWAVNEFSLKGVDFQKFCMNGAALCALGKDCFLELAPDFVGDILWEHVEILQKE [L75V] | -0.721 ± 0.059
9 | GFTKEQQRLGIPKDPRQWTETHVRDWVMWAVNEFSLKGVDFQKFCMNGAALCALGKDCFLELAPDFVGDILWEHREILQKE [L75R] | -0.863 ± 0.058
10 | GFTKEQQRLGIPKDPRQWTETHVRDWVMWAVNEFSLKGVDFQKFCMNGAALCALGKDCFLELAPDFVGDILWEHWEILQKE [L75W] | -0.097 ± 0.046
11 | GFTKEQQRLGIPKDPRQWTETHVRDWVMWAVNEFSLKGVDFQKFCMNGAALCALGKDCFLELAPDFVGDILWEHPEILQKE [L75P] | -0.898 ± 0.14
12 | GFTKEQQRLGIPKDPRQWTETHVRDWVMWAVNEFSLKGVDFQKFCMNGAALCALGKDCFLELAPDFVGDILWEHLEILHKE [Q79H] | -0.178 ± 0.12
13 | GFTKEQQRLGIPKDPRQWTETHVRDWVMWAVNEFSLKGVDFQKFCMNGAALCALGKDCFLELAPDFVGDILWEHLEICQKE [L78C] | -0.16 ± 0.034
14 | GFTKEQQRLGIPKDPRQWTETHVRDWVMWAVNEFSLKGVDFQKFCMNGAALCALGKDCFLELAPDFVGDILWEHLEIRQKE [L78R] | -0.583 ± 0.035
15 | GFTKEQQRLGIPKDPRQWTETHVRDWVMWAVNEFSLKGVDFQKFCMNGAALCALGKDCFLELAPDFVGDILWEHLEINQKE [L78N] | -0.775 ± 0.15
16 | GFTKEQQRLGIPKDPRQWTETHVRDWVMWAVNEFSLKGVDFQKFCMNGAALCALGKDCFLELAPDFVGDILWEHLEIVQKE [L78V] | -0.097 ± 0.029

Row | Variant | abundance fitness
17 | GFTKEQQRLGIPKDPRQWTETHVRDWVMWAVNEFSLKGVDFQKFCMNGAALCALGKDCFLELAPDFVGDILWEHLEIEQKE [L78E] | -0.5 ± 0.066
18 | GFTKEQQRLGIPKDPRQWTETHVRDWVMWAVNEFSLKGVDFQKFCMNGAALCALGKDCFLELAPDFVGDILWEHLEIYQKE [L78Y] | -0.463 ± 0.091
19 | GFTKEQQRLGIPKDPRQWTETHVRDWVMWAVNEFSLKGVDFQKFCMNGAALCALGKDCFLELAPDFVGDILWEHLEIDQKE [L78D] | -0.486 ± 0.097
20 | GFTKEQQRLGIPKDPRQWTETHVRDWVMWAVNEFSLKGVDFQKFCMNGAALCALGKDCFLELAPDFVGDILWEHLEIPQKE [L78P] | -0.513 ± 0.048
21 | GFTKEQQRLGIPKDPRQWTETHVRDWVMWAVNEFSLKGVDFQKFCMNGAALCALGKDCFLELAPDFVGDILWEHLEIGQKE [L78G] | -0.566 ± 0.04
22 | GFTKEQQRLGIPKDPRQWTETHVRDWVMWAVNEFSLKGVDFQKFCMNGAALCALGKDCFLELAPDFVGDILWEHLEIKQKE [L78K] | -0.649 ± 0.079
23 | GFTKEQQRLGIPKDPRQWTETHVRDWVMWAVNEFSLKGVDFQKFCMNGAALCALGKDCFLELAPDFVGDILWEHLEIWQKE [L78W] | -0.244 ± 0.047
24 | GFTKEQQRLGIPKDPRQWTETHVRDWVMWAVNEFSLKGVDFQKFCMNGAALCALGKDCFLELAPDFVGDILWEHLEISQKE [L78S] | -0.508 ± 0.049
25 | GFTKEQQRLGIPKDPRQWTETHVRDWVMWAVNEFSLKGVDFQKFCMNGAALCALGKDCFLELAPDFVGDILWEHLEIFQKE [L78F] | -0.39 ± 0.06
26 | GFTKEQQRLGIPKDPRQWTETHVRDWVMWAVNEFSLKGVDFQKFCMNGAALCALGKDCFLELAPDFVGDILWEHLEIQQKE [L78Q] | -0.199 ± 0.053
27 | GFTKEQQRLGIPKDPRQWTETHVRDWVMWAVNEFSLKGVDFQKFCMNGAALCALGKDCFLELAPDFVGDILWEHLEIAQKE [L78A] | -0.299 ± 0.057
28 | GFTKEQQRLGIPKDPRQWTETHVRDWVMWAVNEFSLKGVDFQKFCMNGAALCALGKDCFLELAPDFVGDILWEHLEIHQKE [L78H] | -0.553 ± 0.1
29 | GFTKEQQRLGIPKDPRQWTETHVRDWVMWAVNEFSLKGVDFQKFCMNGAALCALGKDCFLELAPDFVGDILWEHLEITQKE [L78T] | -0.289 ± 0.066
30 | GFTKEQQRLGIPKDPRQWTETHVRDWVMWAVNEFSLKGVDFQKFCMNGAALCALGKDCFLELAPDFVGDILWEHLEIIQKE [L78I] | -0.098 ± 0.078
31 | GFTKEQQRLGIPKDPRQWTETHVRDWVMWAVNEFSLKGVDFQKFCMNGAALCALGKDCFLELAPDFVGDILWEHLEIMQKE [L78M] | -0.116 ± 0.087
32 | GFTKEQQRLGIPKDPRQWTETHVRDWVMWAVNEFSLKGVDFQKFCMNGAALCALGKDCFLELAPDFVGDILWEHLEILQKD [E81D] | -0.003 ± 0.26

Variants of: B2
Test: as above
Conditions: Homo sapiens

Row | Variant | abundance fitness
33 | K1D | 0.21 ± 0.059
34 | K1C | -0.056 ± 0.075
35 | K1E | 0.258 ± 0.17

Reference: the Human Domainome abundance scans (Beltran et al. 2025)
